Target: SARS-CoV-2 RBD-Fc (SARS-CoV-2) (UniProt P0DTC2)
Assay: BLI

Substance	avidity [pM]	koff [s⁻¹]
IgG1 ab1 (antibody)	160	
IgG1 ab1 (from UniProt P01857)		4e-05

From paper PMC7703590
